Test results from the supplement of paper PMC10126150.
± gives the standard deviation of the averaged measurements.

Tested on: ATP
Assay: switch fluorescence ratio, 500 uM ATP over buffer (Cy3 cluster intensity, sum of 5 cycles each) (fold (ratio)); higher = stronger signal-on switching upon ATP binding; sequences stand for … in TCGTCGGCAGCGTCAGATGTGTATAAGAGACAGTTTTTTTTTTTTTTTTTTTTTTTTT…TC
Settings: aptamer strand: ATP DNA aptamer (quencher-CACCTGGGGGAGTATTGCGGAGGAAGG + anchor), 100 nM annealed; ATP concentration: 500 uM
Procedure, shortened: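 Per cluster, summed Cy3 intensity from the target cycles was divided by that from the buffer cycles to give the fluorescence ratio, then averaged per switch-domain sequence. Clusters outside 100-1000 RFU were excluded. The Cy3-labelled switching-strand clusters, on a modified Illumina MiSeq flow-cell, were annealed to 100 nM quencher-labelled ATP aptamer and imaged in selection buffer, then after 15 min with 500 uM ATP at 22 °C, for five cycles with NaOH stripping and re-annealing between them.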
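Note: ATP exposure 15 min at 22 °C before imaging.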

| Sequence | switch fluorescence ratio |
| --- | --- |
| TAGATCATGC | 0.994 ± 0.024 |
| TAGATCTTAC | 1.05 ± 0.046 |
| TAGATGACGG | 1.01 ± 0.041 |
| TAGATGCCAG | 1.07 ± 0.039 |
| TAGATGGGAT | 0.976 ± 0.014 |
| TAGATGGGGA | 0.977 ± 0.035 |
| TAGATTCTGT | 0.9951 ± 0.0032 |
| TAGATTGTGT | 0.998 ± 0.027 |
| TAGATTTGGG | 0.967 ± 0.0089 |
| TAGATTTT | 0.9953 ± 0.007 |
| TAGCAATTAT | 1.81 ± 0.085 |
| TAGCAATTTG | 1.05 ± 0.053 |
| TAGCAGTGGG | 0.973 ± 0.015 |
| TAGCCCTGCT | 1.033 ± 0.0087 |
| TAGCCGATGG | 0.994 ± 0.027 |
| TAGCCTAGTT | 0.963 ± 0.022 |
| TAGCGCAATT | 1.74 ± 0.22 |
| TAGCGGAAAA | 1.018 ± 0.0026 |
| TAGCGGAGGC | 1.03 ± 0.03 |
| TAGCGGGCTT | 0.983 ± 0.025 |
| TAGCGTAAAT | 0.9913 ± 0.0049 |
| TAGCTAGTAT | 1.63 ± 0.95 |

| Sequence | switch fluorescence ratio |
| --- | --- |
| TAGCTCGGGG | 1.03 ± 0.035 |
| TAGCTGAGGG | 0.997 ± 0.015 |
| TAGCTGAGTG | 0.985 ± 0.043 |
| TAGCTTATAA | 1.08 ± 0.024 |
| TAGCTTGGCA | 0.991 ± 0.048 |
| TAGCTTGGTG | 1.04 ± 0.015 |
| TAGCTTGTCA | 0.9884 ± 0.0065 |
| TAGCTTGTTT | 1.02 ± 0.022 |
| TAGCTTTGGG | 1 ± 0.011 |
| TAGGAAGGAG | 0.98 ± 0.06 |
| TAGGAAGGCG | 1.01 ± 0.047 |
| TAGGAATGTT | 0.9659 ± 0.0022 |
| TAGGACGTGG | 0.988 ± 0.061 |
| TAGGACTCGG | 0.989 ± 0.024 |
| TAGGAGGAGT | 0.951 ± 0.017 |
| TAGGAGGGAG | 1.02 ± 0.031 |
| TAGGAGGGGC | 0.958 ± 0.12 |
| TAGGAGTAAT | 1.012 ± 0.0047 |
| TAGGAGTGAA | 0.9792 ± 0.0021 |
| TAGGATACGG | 0.995 ± 0.012 |
| TAGGATGTGT | 1 ± 0.0056 |
| TAGGATTGCT | 1 ± 0.021 |

| Sequence | switch fluorescence ratio |
| --- | --- |
| TAGGATTTTG | 0.985 ± 0.033 |
| TAGGCAGAGT | 1.01 ± 0.023 |
| TAGGCATCGT | 0.969 ± 0.019 |
| TAGGCGGTGT | 1.01 ± 0.012 |
| TAGGCGTGCT | 0.987 ± 0.013 |
| TAGGCTGCGA | 1.04 ± 0.025 |
| TAGGCTTAGG | 1.029 ± 0.0019 |
| TAGGGAAAAG | 0.99 ± 0.013 |
| TAGGGAAATA | 1 ± 0.051 |
| TAGGGACGGG | 1.07 ± 0.087 |
| TAGGGAGAAA | 1.46 ± 0.64 |
| TAGGGAGGCG | 0.962 ± 0.063 |
| TAGGGCACA | 1.1 ± 0.057 |
| TAGGGCCGTG | 0.977 ± 0.0059 |
| TAGGGCGCGG | 0.9403 ± 0.0034 |
| TAGGGCGGGA | 0.946 ± 0.052 |
| TAGGGCTGGC | 1 ± 0.08 |
| TAGGGCTGTA | 0.993 ± 0.049 |
| TAGGGGAATC | 0.992 ± 0.02 |
| TAGGGGAATG | 1.02 ± 0.098 |
| TAGGGGAATT | 0.967 ± 0.039 |
| TAGGGGAGC | 1.01 ± 0.045 |

| Sequence | switch fluorescence ratio |
| --- | --- |
| TAGGGGAGCA | 1.01 ± 0.044 |
| TAGGGGATAT | 0.964 ± 0.025 |
| TAGGGGCAGG | 1.07 ± 0.022 |
| TAGGGGCCGT | 1.02 ± 0.05 |
| TAGGGGCCTA | 0.995 ± 0.011 |
| TAGGGGCGTG | 0.998 ± 0.039 |
| TAGGGGGAAT | 1.01 ± 0.054 |
| TAGGGGGATG | 0.997 ± 0.028 |
| TAGGGGGCAT | 1.01 ± 0.043 |
| TAGGGGGCGG | 0.988 ± 0.03 |
| TAGGGGGCTC | 0.959 ± 0.02 |
| TAGGGGGGAA | 1 ± 0.023 |
| TAGGGGGGCC | 0.9669 ± 0.0015 |
| TAGGGGGGGA | 1.01 ± 0.018 |
| TAGGGGGGGT | 1 ± 0.031 |
| TAGGGGGT | 0.985 ± 0.027 |
| TAGGGGGTAA | 0.997 ± 0.039 |
| TAGGGGGTCG | 0.971 ± 0.042 |
| TAGGGGGTTC | 1.01 ± 0.027 |
